Data as given in patent publication US8592138B2, “Methods for improving sperm functionality” (Androgenix Ltd., priority 2010, dated 2013).

B1: aSFP: acidic seminal fluid protein, bovine spermadhesin; SEQ ID NO: 4 (protein, listed as Bos taurus)
chain: MKLSSVIPWALLLSTATVDSMDWLPRNTNCGGILKEESGVIATYYGPKTNCVWTIQMPPEYHVRVSIQYLQLNCNKESLEIIDGLPGSPVLGKICEGSLMDYRSSGSIMTVKYIREPEHPASFYEVLYFQDPQA
B2: BSP-A3: bovine seminal plasma protein; SEQ ID NO: 2 (protein, listed as Bos taurus)
chain: MALRLGLFLIWAGVSMFLQLDPVNGDEQLSEDNVILPKEKKDPASGAETKDNKCVFPFIYGNKKYFDCTLHGSLFLWCSLDADYTGRWKYCTKNDYAKCVFPFIYEGKSYDTCIIIGSTFMNYWCSLSSNYDEDGVWKYC
B3: PDC-109: bovine seminal plasma protein purified by ion exchange chromatography; SEQ ID NO: 1 (protein, listed as Bos taurus)
chain: MALQLGLFLIWAGVSVFLQLDPVNGDQDEGVSTEPTQDGPAELPEDEECVFPFVYRNRKHFDCTVHGSLFPWCSLDADYVGRWKYCAQRDYAKCVFPFIYGGKKYETCTKIGSMWMSWCSLSPNYDKDRAWKYC

What was measured:
[1] = system: Bovine sperm cells; experiment: Fluorescence microscopy of pegylated seminal proteins binding to sperm; type: cell-based; conditions: pegylated/biotinylated SP protein, 37° C. for 30 min in NCM
Description: (§1) NHS-dPEG4-Biotin was resuspended in H2O. Two hundred micrograms of PDC-109, BSP-A3, BSP-30 kDa and aSFP, were mixed in molar ratios of 1:5, 1:20, 1:40 and 1:60 with NHS-dPEG4Biotin and incubated for 30 min at room temperature. The reaction was stopped by the addition of 1M Tris-HCl pH7.4 at a final concentration of 25 mM. Pegylated proteins were dialysed against PBS to remove excess PEG. Pegylation was assessed by SDS-PAGE with Coomassie Blue staining. […] Western blots with labelled streptavidin supported this conclusion.
Bovine sperm cells from liquid extended semen were percoll-purified and washed in non-capacitating media (NCM; Table 3 below) with addition of 0.1% PEG (MW 600, Serva). The cells were incubated with pegylated/biotinylated SP proteins in NCM at 37° C. for 30 min, and centrifuged once to remove the supernatant. Cell pellets were resuspended in NCM containing streptavidin-alexa fluor 488 and LIVE/DEAD fixable far red dye, and incubated at 37° C. for 1 hr. Cells were washed once in NCM, and resuspended in NCM to a final concentration close to 10^7 cells/ml. DAPI was added to cells, and 10^5 cells were placed onto Superfrost plus slide. The sperm cells were studied with a Leica DMRE microscope equipped with a Leica DC500 camera, a fluorescent ebq 100 lamp and interchangeable filter sets.

[2] = system: sperm cells; experiment: Flow cytometry of pegylated seminal proteins binding to sperm; type: cell-based, bovine; conditions: 1 μg/mL pegylated SP protein, 30 min at 28° C.
Description: as §1
Sperm cells were prepared by centrifugation of fresh ejaculate containing extender through a 60% Percoll™ PLUS gradient followed by one wash in NCM. The sperm cells were then incubated for 30 min at 28° C. with 1 μg/mL of each of the pegylated SP proteins. After incubation with the pegylated SP proteins, cells were washed once, streptavidin-alexa fluor 488 was added to the cells and they were incubated for a further 30 min at 37° C. Flow cytometry analysis was then conducted.

Molecule	Fluorescent signal on sperm (streptavidin-alexa fluor 488) [1]	Binding to sperm cells (right-shift in the histogram vs streptavidin-alexa fluor 488 alone) [2]
B1	strong fluorescent signal in the acrosomal cap part of sperm head	
B2		demonstrated binding to sperm cells
B3		demonstrated binding to sperm cells
